Measurements from PMC4784309, “Substrate specificity and function of acetylpolyamine amidohydrolases from Pseudomonas aeruginosa” (BMC Biochemistry, 2016).

Columns and labels:
[1] = test system: Cc1cc(=O)oc2cc(NC(=O)[C@H](CCCCNC(=O)C(F)(F)F)NC(=O)OC(C)(C)C)ccc12; experiment: purified protein; settings: pH 8, 30 °C, 20 mM Tris-HCl, 50 mM NaCl
[2] = test system: CC(=O)NCCCC[C@H](NC(=O)OC(C)(C)C)C(=O)Nc1ccc2c(C)cc(=O)oc2c1; experiment: purified protein; settings: pH 8, 30 °C, 20 mM Tris-HCl, 50 mM NaCl
purified protein = substrate: Cc1cc(=O)oc2cc(NC(=O)[C@H](CCCCNC(=O)C(F)(F)F)NC(=O)OC(C)(C)C)ccc12; experiment: purified protein; settings: pH 8, 30 °C, 20 mM Tris-HCl, 50 mM NaCl; remark: listed apart in the source
[3] = substrate: CC(=O)NCCCCCN; experiment: diamine oxidase coupled colorimetric assay; type: biochemical, Pseudomonas aeruginosa; settings: pH 7.4, 21 °C, 100 mM HEPES
From the text: (§1) diamine oxidase coupled colorimetric assay on PA1409

[4] = substrate: CC(=O)NCCCCN; experiment: diamine oxidase coupled colorimetric assay; type: biochemical, Pseudomonas aeruginosa; settings: pH 7.4, 21 °C, 100 mM HEPES
From the text: as §1

[5] = substrate: CC(=O)NCCCCCN; experiment: diamine oxidase coupled colorimetric assay; type: biochemical, Pseudomonas aeruginosa; settings: pH 7.4, 21 °C, 100 mM HEPES; remark: listed apart in the source
From the text: (§2) diamine oxidase coupled colorimetric assay on PA0321

[6] = substrate: CC(=O)NCCCCN; experiment: diamine oxidase coupled colorimetric assay; type: biochemical, Pseudomonas aeruginosa; settings: pH 7.4, 21 °C, 100 mM HEPES; remark: listed apart in the source
From the text: as §2

Molecule | Km [2] | Km (purified protein) | further results
HDAH (Alcaligenaceae bacterium FB188) | 26 ± 4 µM | – | Km [1]: 7.2 ± 1.1 µM; Vmax [1]: 0.0138 µmol/min/mg; Vmax [2]: 0.0258 µmol/min/mg
PA0321 (Pseudomonas aeruginosa PAO1) | 22 ± 10 µM | – | –
PA1409 (Pseudomonas aeruginosa PAO1) | 223 ± 12 µM | – | –
PA3774 (Pseudomonas aeruginosa PAO1) | 95 ± 7 µM | – | –
PA1409 (Pseudomonas aeruginosa PAO1) (protein, recombinant, E. coli expressed, produced as described before [30]) MLSVYSDDHRLHFGQSELVDGKLQPCFEMPSRADTVLARVKSQNLGEVIAPKDFGREPLLRLHDAAYLDFLQGAWARWTAEGHSGDLVSTTFPGRRLRRDGPIPTALMGELGYYSFDTEAPITAGTWQAIYSSAQVALTAQEHMRQGARSAFALCRPPGHHAGGDFMGGYCFLNNAAIATQAFLDQGARRVAILDVDYHHGNGTQDIFYRRDDVLFASIHGDPRVEYPYFLGYADERGEGAGEGCNHNYPLAHGSGWDLWSAALDDACVRIAGYAPDALVISLGVDTYKEDPISQFRLDSPDYLRMGERIARLGLPTLFIMEGGYAVEAIGINAVNVLQGYEGAAR | – | 84 ± 15 µM | Km [3]: 465 ± 53 µM; Km [4]: 503 ± 60 µM
PA0321 (Pseudomonas aeruginosa PAO1) (protein, recombinant, E. coli expressed, produced as described before [30]) MLTIYSDDHRLHHGRHELIGGQFTPCFEKPSRADMVLDRVKAVGLGEVRAPRDFGLEPIRRVHSEGFVRFLQNAWQDWLATGRSHDMLPIAWPTRRLRQTEPDNIDGRLGYYSFDAGAPITAGTWQAITSSANVALSGQSELANGARSVFSLCRPPGHHAAADYMGGYCFFNNAAIAAQAFLDRGAGRVAILDVDYHHGNGTQDIFYDRADVLFTSIHGDPRFEYPYFLGYADEKGNGVGTGYNFNYPLAAGSDWATWSQALQAAIRQIQAYAADALIVSLGVDTFKEDPISQFRLDSPDYLRMGEAIGKLGLATLFVMEGGYAVEEIGINAVNVLQGFEGVHR | – | 11 ± 1 µM | Km [5]: 284 ± 39 µM; Km [6]: 411 ± 34 µM
PA3774 (Pseudomonas aeruginosa PAO1) (protein) MTRRTAFFFDELCLWHAAGPHALTLPVGGWVQPPAAAGHAESPETKRRLKSLLDVSGLTARLQLRSAPPASDEDLLRVHPAHYLERFKALSDAGGGSLGQDAPIGPGSYEIARLSAGLAIAALDAVLAGEADNAYSLSRPPGHHCLPDQAMGFCFFANIAVAIEAAKARHGVERVAVLDWDVHHGNGTQAIYYRRDDVLSISLHQDGCFPPGYSGAEDIGEDRGRGFNLNVPLLPGGGHDAYMQAMQRIVLPALERFRPQLIVVASGFDANAVDPLARMQLHSDSFRAMTAMVRDAAERHAGGRLVVVHEGGYSEAYVPFCGLAVIEELSGVRSAVRDPLRDFIELQQPNAAFRDFQRQRLEELAAQFGLCPAQPLQAAR | – | 21 ± 2 µM | –
